Laboratory results: patent US12415868 (MINERVA BIOTECHNOLOGIES, dated 2025)

T1: recombinant human NME7AB (human, UniProt Q9Y5B8 92-376)
T1 construct: also called NME-AB; NME7 (in several passages)
T1 sequence: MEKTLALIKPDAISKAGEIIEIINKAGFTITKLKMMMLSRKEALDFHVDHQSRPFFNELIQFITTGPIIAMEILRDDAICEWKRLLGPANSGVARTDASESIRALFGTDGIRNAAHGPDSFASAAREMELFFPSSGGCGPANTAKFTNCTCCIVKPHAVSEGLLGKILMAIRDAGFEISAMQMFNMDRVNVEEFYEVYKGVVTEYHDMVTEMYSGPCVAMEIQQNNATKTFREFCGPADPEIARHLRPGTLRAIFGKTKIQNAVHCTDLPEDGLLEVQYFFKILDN

B1: PSMGFR peptide (MUC1* extra cellular domain peptide) (peptide)
peptide: GTINVHDVETQFNQYKTEAASRYNLTISDVSVSDVPFPFSAQSGA
notes: For the other ELISAs only surface-immobilized peptide is stated; also called MUC1* peptide; FLR
B2: anti-NME7 monoclonal antibody 8F9A5A1 (antibody, V domains shown)
VH: IQLVQSGPELKKPGETVKISCKASGYTFTNYGMNWVKQAPGKGLKWMGWINTYTGEPTYVDDFKGRFAFSLETSATTAYLQINNLKNEDTSTYFCARLRGIRPGPLAYWGQGTLVTVSA
VL: EILLTQSPAIIAASPGEKVTITCSASSSVSYMNWYQQKPGSSPKIWIYGISNLASGVPARFSGSGSGTSFSFTINSMEAEDVATYYCQQRSSYPPTFGGGTKLEIKR
notes: Mouse monoclonal

Columns and labels:
[1] = target: T1, recombinant human NME7AB; test: ELISA sandwich assay, HRP signal (FIG. 1A-1B)
Procedure: Example 3—ELISA Assay Showing NME7$AB$ Simultaneously Binds to Two MUC1* Extra Cellular Domain Peptides Results are shown in FIG. 1. The PSMGFR peptide bearing a C-terminal Cysteine (PSMGFR-Cys) was covalently coupled to BSA using Imject Maleimide activated BSA kit (Thermo Fisher). PSMGFR-Cys coupled BSA was diluted to 10 ug/mL in 0.1M carbonate/bicarbonate buffer pH 9.6 and 50 uL was added to each well of a 96 well plate. After overnight incubation at 4° C., the plate was washed twice with PBS-T and a 3% BSA solution was added to block remaining binding site on the well. After 1 h at RT the plate was washed twice with PBS-T and NME7, diluted in PBS-T+1% BSA, was added at different concentrations. After 1h at RT the plate was washed 3× with PBS-T and anti-NM23-H7 (B-9). Santa Cruz. […] After 1 h at RT the plate was washed 3× with PBS-T and binding of NME7 was measured at 415 nm using ABTS solution (Pierce).
After 1 h at RT the plate was washed 3× with PBS-T and His-Tagged PSMGFR peptide (PSMGFR-His) or biotinylated PSMGFR peptide (PSMGFR-biotin), diluted in PBS-T+1% BSA, was added at different concentration. […] After 1 h at RT the plate was washed 3× with PBS-T and binding of PSMGFR peptide to NME7 already bound to another PSMGFR peptide (which could not signal by anti-His antibody or by streptavidin) coupled BSA was measured at 415 nm using a ABTS solution (Pierce).

[2] = target: T1, recombinant human NME7AB; test: ELISA, plate coated with recombinant NME7AB (FIG. 24)
Procedure: The surface of the multi-well plate was coated with a recombinant $NME7AB$. Anti-$NME7AB$ antibodies were separately added to wells. Standard washes were performed and visualized by adding an HRP-conjugated secondary antibody. […] 7 of the 10 new anti-NME7 antibodies bound strongly to NME7$AB$. […] The surface of the multi-well plate was coated with a recombinant NME1-S120G dimers, which are also known to bind to the MUC1* extra cellular domain. Anti-NME7$AB$ antibodies were separately added to wells. Standard washes were performed and visualized by adding an HRP-conjugated secondary antibody.

Binder	binding result [1]	binding result [2]
B1	binds	
B2		binds
